Experimental data published in PMC8378251, “Biochemical and Structural Characterisation of a Novel D-Lyxose Isomerase From the Hyperthermophilic Archaeon Thermofilum sp” (Frontiers in Bioengineering and Biotechnology, 2021).

Target: the molecule itself
Assay: SEC; calibrated Superdex 200 pg HiLoad 16/600, 25 mM Tris-HCl pH 8.0, 150 mM NaCl, 1.0 ml/min; apparent molecular mass ~46 kDa

B1: D-lyxose isomerase from Thermofilum sp. (TsLI) (enzyme, Thermofilum sp. ex4484_79)
chain: MLTKELVKEAREKAIRMLEKACIAITDEEKEKIEVTDFGLGVLYTFGLEILVYVNNERYCAKELVMFPRQICPEHRHPPIGSYLGKQETFRCRWGEVYLYVPGTPTPNPRARIPEEKKRYFTVWHEIVLRPGEQYTIPPNTLHWFQAGDEGAIVSEFSSQSIDEKDIFTDPNVKRIPEIV
notes: locus tag B6U94_07925; synthetic gene cloned into pET19b; subunit about 23 kDa; Homodimer; in the crystal the two monomers are joined by a disulfide bond between C22 of each subunit; No removal of the His tag is described; also called T. sp; LI; source: E. coli Rosetta (DE3) pLysS, purified (heat precipitation at 75°C, Ni-NTA, SEC)
  stoichiometry N: 2
